Source: patent US20220177589A1 (OXFORD UNIVERSITY INNOVATION, published 2022)

What was measured:
[1] = biological target: full length human BTLA expressed in a Jurkat T cell line (human, UniProt Q7Z6A9 31-289); assay: cell-based or functional assay
[2] = biological target: chimeric BTLA of humanised-BTLA mice (human extracellular region, murine transmembrane and signaling … (human; mouse, UniProt Q7TSA3 184-306, limits assumed); assay: cell-based or functional assay
Sequence of chimeric BTLA of humanised-BTLA mice (human extracellular region, murine transmembrane and signaling … (Q7TSA3 other isoform, or with tags, fused parts or gaps mutant limits assumed): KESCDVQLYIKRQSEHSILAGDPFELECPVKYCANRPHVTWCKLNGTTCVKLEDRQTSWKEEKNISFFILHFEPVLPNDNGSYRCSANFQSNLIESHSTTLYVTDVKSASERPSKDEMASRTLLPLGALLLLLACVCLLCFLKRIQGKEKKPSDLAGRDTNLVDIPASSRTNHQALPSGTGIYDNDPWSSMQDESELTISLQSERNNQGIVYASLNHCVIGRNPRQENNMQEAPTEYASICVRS

B1: 3E8 (antibody, IgG1, V domains shown)
VH: QVQLQQSGAELARPGASVRLSCKASGYTFTSYAIRWVKQRTGQGLEWIGEIYPRSGNTYYNENFKGKATLTADKSSSTAYMELRSLTSEDSAVYFCARSGGASYTMDYWGQGTSVTVSS
VL: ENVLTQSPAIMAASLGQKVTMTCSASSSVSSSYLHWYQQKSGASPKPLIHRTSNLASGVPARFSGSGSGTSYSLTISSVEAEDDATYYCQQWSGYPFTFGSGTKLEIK
T cell reporter (NFkB signaling), % inhibition [1]: 30% | AntiCD3/CD28 (CD4 T cell proliferation) repeat 1, % inhibition [2]: 27% | AntiCD3/CD28 (CD4 T cell proliferation) repeat 2, % inhibition [2]: 35% | AntiCD3/CD28 (CD69+ CD4 T cells) repeat 1, % inhibition [2]: 52% | AntiCD3/CD28 (CD69+ CD4 T cells) repeat 2, % inhibition [2]: 64% | MLR (CD4 T cell proliferation) repeat 1, % inhibition [2]: 43% | MLR (CD4 T cell proliferation) repeat 2, % inhibition [2]: 35%

B2: 7A1 (antibody, IgG1, V domains shown)
VH: QVQLQQSGPELVKPGASVKISCKASGYAFSSSWMNWVKQRPGKGLEWIGRIYPGDGDTNYNGKFKGKATLTADKSSSTAYMQLSSLTSEDSAVYFCARRGYGYLAYWGQGTLVTVSA
VL: DIVMTQSHKFMSTSVGDRVSITCKASQDVSTAVAWYQQKPGQSPKLLIYSASYRYTGVPDRFTGSGSGTDFTFTISSVQAEDLAVYYCQQHYSTPWTFGGGTKLEIK
T cell reporter (NFkB signaling), % inhibition [1]: 20% | AntiCD3/CD28 (CD4 T cell proliferation) repeat 1, % inhibition [2]: 14% | AntiCD3/CD28 (CD4 T cell proliferation) repeat 2, % inhibition [2]: 17% | AntiCD3/CD28 (CD69+ CD4 T cells) repeat 1, % inhibition [2]: 28% | AntiCD3/CD28 (CD69+ CD4 T cells) repeat 2, % inhibition [2]: 38% | MLR (CD4 T cell proliferation) repeat 1, % inhibition [2]: 23% | MLR (CD4 T cell proliferation) repeat 2, % inhibition [2]: 29%

B3: 15C6 (antibody, IgG1, V domains shown)
VH: QVQLQQSGPELVKPGASVKISCKASGYAFSSSWMNWVKQRPGKGLEWIGRIYPGDGDTNYNGKFKGKATLTADKSSSTAYMQLSSLTSEDSAVYFCARRGYGYLAYWGQGTLVTVSA
VL: DIVMTQSHKFMSTSVGDRVSITCKASQDVSTAVAWYQQKPGQSPKLLIYSASYRYTGVPDRFTGSGSGTDFTFTISSVQAEDLAVYYCQQHYSTPYTFGGGTKLEIK
T cell reporter (NFkB signaling), % inhibition [1]: 9% | AntiCD3/CD28 (CD4 T cell proliferation) repeat 1, % inhibition [2]: 2% | AntiCD3/CD28 (CD4 T cell proliferation) repeat 2, % inhibition [2]: -2% | AntiCD3/CD28 (CD69+ CD4 T cells) repeat 1, % inhibition [2]: 12% | AntiCD3/CD28 (CD69+ CD4 T cells) repeat 2, % inhibition [2]: 19% | MLR (CD4 T cell proliferation) repeat 1, % inhibition [2]: 19% | MLR (CD4 T cell proliferation) repeat 2, % inhibition [2]: 8%

B4: 26B1 (antibody, IgG1, V domains shown)
VH: EVQLQQSGPVLVKPGASVKMSCKASGYTFTDYYLNWVKQSHGKSLEWIGLIDPYNGGSSCNQKFKGKATLTVDKSSSTAYMDLNSLTSEDSAVYYCARGNAMDYWGQGTSVTVSS
VL: DIVMTQSHKFMSTSVGDRVSITCKASQDVSTAVAWYQEKPGQSPKLLIYWASTRHTGVPDRFTGSGSGTDYILNISSVQAEDLALYYCQQHYIIPYMFGGGTKLEIK
T cell reporter (NFkB signaling), % inhibition [1]: 29% | AntiCD3/CD28 (CD4 T cell proliferation) repeat 1, % inhibition [2]: 11% | AntiCD3/CD28 (CD4 T cell proliferation) repeat 2, % inhibition [2]: 19% | AntiCD3/CD28 (CD69+ CD4 T cells) repeat 1, % inhibition [2]: 35% | AntiCD3/CD28 (CD69+ CD4 T cells) repeat 2, % inhibition [2]: 30% | MLR (CD4 T cell proliferation) repeat 1, % inhibition [2]: 12% | MLR (CD4 T cell proliferation) repeat 2, % inhibition [2]: 10%

B5: 8C4 (antibody, IgG1, V domains shown)
VH: DVQLQESGPGMVKPSQSLSLTCTVTGYSITSGYDWHWIRHFPGNKLEWMGYISYSGSTNYNPSLKSRISITHDTSKNHFFLKLNSVTTEDTATYYCARGTPVVAEDYFDYWGQGTTLTVSS
VL: QAVVTQESALSTSPGETVTLTCRSSTGAVTTSNYANWVQEKPDHLFTGLIGATNNRAPGVPARFSGSLIGDKAALTITGAQTEDEAIYFCALWYSNHLVFGGGTKLTVLG
T cell reporter (NFkB signaling), % inhibition [1]: 21% | AntiCD3/CD28 (CD4 T cell proliferation) repeat 1, % inhibition [2]: 12% | AntiCD3/CD28 (CD4 T cell proliferation) repeat 2, % inhibition [2]: 4% | AntiCD3/CD28 (CD69+ CD4 T cells) repeat 1, % inhibition [2]: 29% | AntiCD3/CD28 (CD69+ CD4 T cells) repeat 2, % inhibition [2]: 29% | MLR (CD4 T cell proliferation) repeat 1, % inhibition [2]: 42% | MLR (CD4 T cell proliferation) repeat 2, % inhibition [2]: -2%

B6: 27G9 (antibody, IgG1, V domains shown)
VH: EVQLQQSVAELVRPGASVKLSCTASGFNIKNTYMHWVKQRPEQGLEWIGRIDPANGNTKYAPKFQGKATITADTSSNTAYLQLSSLTSEDTAIYYCALTYYGSSQYYFDYWGQGTTLTVSS
VL: not shown
T cell reporter (NFkB signaling), % inhibition [1]: 24% | AntiCD3/CD28 (CD4 T cell proliferation) repeat 1, % inhibition [2]: 10% | AntiCD3/CD28 (CD4 T cell proliferation) repeat 2, % inhibition [2]: 13% | AntiCD3/CD28 (CD69+ CD4 T cells) repeat 1, % inhibition [2]: 24% | AntiCD3/CD28 (CD69+ CD4 T cells) repeat 2, % inhibition [2]: 22% | MLR (CD4 T cell proliferation) repeat 1, % inhibition [2]: 9% | MLR (CD4 T cell proliferation) repeat 2, % inhibition [2]: 8%

B7: 1H6 (antibody, IgG1, V domains shown)
VH: EVQLQQSVAELVRPGASVKLSCTASGFNIKNTYMHWVKQRPEQGLEWIGRIDPANGNTKYDPKFQGKATITADTSSNTAYVQLSSLTSEDTAIYYCALTYYGSSQHYFDYWGQGTTLTVSS
VL: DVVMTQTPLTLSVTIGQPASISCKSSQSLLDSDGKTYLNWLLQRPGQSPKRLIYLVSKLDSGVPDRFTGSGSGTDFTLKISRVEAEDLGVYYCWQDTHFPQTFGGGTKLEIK
T cell reporter (NFkB signaling), % inhibition [1]: 26% | AntiCD3/CD28 (CD4 T cell proliferation) repeat 1, % inhibition [2]: 26% | AntiCD3/CD28 (CD4 T cell proliferation) repeat 2, % inhibition [2]: 19% | AntiCD3/CD28 (CD69+ CD4 T cells) repeat 1, % inhibition [2]: 47% | AntiCD3/CD28 (CD69+ CD4 T cells) repeat 2, % inhibition [2]: 53% | MLR (CD4 T cell proliferation) repeat 1, % inhibition [2]: 31% | MLR (CD4 T cell proliferation) repeat 2, % inhibition [2]: 16%

B8: 26F3 (antibody, IgG1, V domains shown)
VH: EVQLQQSVAELVRPGASVKLSCTASGFNIKNTYMYWVKQRPEQGLEWIGRIDPANGNTKYAPKFQGKATITADTSSNTAYLQLSSLTSEDTAIYYCALLYYGSSYDYFDYWGQGTTLTVSS
VL: not shown
T cell reporter (NFkB signaling), % inhibition [1]: 20% | AntiCD3/CD28 (CD4 T cell proliferation) repeat 1, % inhibition [2]: 4% | AntiCD3/CD28 (CD4 T cell proliferation) repeat 2, % inhibition [2]: 0% | AntiCD3/CD28 (CD69+ CD4 T cells) repeat 1, % inhibition [2]: 19% | AntiCD3/CD28 (CD69+ CD4 T cells) repeat 2, % inhibition [2]: 17% | MLR (CD4 T cell proliferation) repeat 1, % inhibition [2]: 9% | MLR (CD4 T cell proliferation) repeat 2, % inhibition [2]: -5%

B9: 12F11 (antibody, IgG1, V domains shown)
VH: EVQLQQSGPELVKPGASVKISCKASGYTFTDYYMNWVKQSHGKSLEWIGDINPNNGGTSYNQKFKGKATLTVDKSSSTAYMELRSLTSEDSAVYYCARWRQLRSDYWGQGTTLTVSS
VL: DIQMTQSPASQSASLGESVTITCLASQTIGTWLAWYQQKPGKSPQLLIYAATSLADGVPSRFSGSGSGTKFSFKISSLQAEDFVSYYCQQLYSTPLTFGAGTKLELK
T cell reporter (NFkB signaling), % inhibition [1]: 30% | AntiCD3/CD28 (CD4 T cell proliferation) repeat 1, % inhibition [2]: 5% | AntiCD3/CD28 (CD4 T cell proliferation) repeat 2, % inhibition [2]: 9% | AntiCD3/CD28 (CD69+ CD4 T cells) repeat 1, % inhibition [2]: 30% | AntiCD3/CD28 (CD69+ CD4 T cells) repeat 2, % inhibition [2]: 40% | MLR (CD4 T cell proliferation) repeat 1, % inhibition [2]: 28% | MLR (CD4 T cell proliferation) repeat 2, % inhibition [2]: 23%

B10: 10B1 (antibody, IgG1, V domains shown)
VH: QVQLQQSGAELARPGASVKLSCKASGYTFTSYGISWVKQRTGQGLEWIGEIYPRSGNTYYNEKFKGKATLTADKSSSTAYMELRSLTSEDSAVYFCARNYGSSYPFAYWGQGTLVTVSA
VL: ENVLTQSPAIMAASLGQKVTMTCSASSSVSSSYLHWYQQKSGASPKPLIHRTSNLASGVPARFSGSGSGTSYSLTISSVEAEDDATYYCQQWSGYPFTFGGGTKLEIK
T cell reporter (NFkB signaling), % inhibition [1]: 27% | AntiCD3/CD28 (CD4 T cell proliferation) repeat 1, % inhibition [2]: 8% | AntiCD3/CD28 (CD4 T cell proliferation) repeat 2, % inhibition [2]: 14% | AntiCD3/CD28 (CD69+ CD4 T cells) repeat 1, % inhibition [2]: 24% | AntiCD3/CD28 (CD69+ CD4 T cells) repeat 2, % inhibition [2]: 36% | MLR (CD4 T cell proliferation) repeat 1, % inhibition [2]: 16% | MLR (CD4 T cell proliferation) repeat 2, % inhibition [2]: 25%

B11: 16E1 (antibody, IgG1, V domains shown)
VH: QVQLQQSGAELARPGASVKLSCKASGYTFTSYGISWVKQRTGQGLEWIGEIYPRSGNTYYNEKFKGKATLTADKSSSTAYMELRSLTSEDSAVYFCARGYGSSYGFAYWGQGTLVTVSA
VL: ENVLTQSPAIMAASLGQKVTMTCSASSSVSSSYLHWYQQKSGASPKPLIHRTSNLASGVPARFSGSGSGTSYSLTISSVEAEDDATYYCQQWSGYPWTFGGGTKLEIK
T cell reporter (NFkB signaling), % inhibition [1]: 22% | AntiCD3/CD28 (CD4 T cell proliferation) repeat 1, % inhibition [2]: 4% | AntiCD3/CD28 (CD4 T cell proliferation) repeat 2, % inhibition [2]: 8% | AntiCD3/CD28 (CD69+ CD4 T cells) repeat 1, % inhibition [2]: 9% | AntiCD3/CD28 (CD69+ CD4 T cells) repeat 2, % inhibition [2]: 23% | MLR (CD4 T cell proliferation) repeat 1, % inhibition [2]: 33% | MLR (CD4 T cell proliferation) repeat 2, % inhibition [2]: 8%

B12: 15B6 (antibody, IgG1, V domains shown)
VH: QVQLQQPGAELVKPGASVKLSCKASGYTFTSYWMHWVKQRPGQGLEWIGMIHPNSGSTNYNEKFKSKATLTVDKSSSTAYMQLSSLTSEDSAVYYCARKRGGLGDYWGQGTSVTVSS
VL: DIVLTQSPASLAVSLGQRATISCRASKSVSTSGYSYMHWYQQKPGQPPKLLIYLASNLESGVPARFSGSGSGTDFTLNIHPVEEEDAATYYCQHSRELPYTFGGGTKLEIK
T cell reporter (NFkB signaling), % inhibition [1]: 21% | AntiCD3/CD28 (CD4 T cell proliferation) repeat 1, % inhibition [2]: 9% | AntiCD3/CD28 (CD4 T cell proliferation) repeat 2, % inhibition [2]: 16% | AntiCD3/CD28 (CD69+ CD4 T cells) repeat 1, % inhibition [2]: 13% | AntiCD3/CD28 (CD69+ CD4 T cells) repeat 2, % inhibition [2]: 20% | MLR (CD4 T cell proliferation) repeat 1, % inhibition [2]: 7% | MLR (CD4 T cell proliferation) repeat 2, % inhibition [2]: 13%

B13: 3A9 (antibody, IgG1, V domains shown)
VH: QVQLKQSGAELVRPGASVKLSCKASGYTFTDYYINWVKQRPGQGLEWIARIYPGSGNTYYNEKFKGKATLTAEKSSSTAYMQLSSLTSEDSAVYFCARGYGNSDYWGQGTTLTVSS
VL: DILLTQSPAILSVSPGERVSFSCRASQSIGTRIHWYQQRTNGSPRLLIKYASESISGIPSRFSGSGSGTDFTLSINSVESEDIADYYCQQSNSWPYTFGGGTKLEIK
T cell reporter (NFkB signaling), % inhibition [1]: 27% | AntiCD3/CD28 (CD4 T cell proliferation) repeat 1, % inhibition [2]: 9% | AntiCD3/CD28 (CD4 T cell proliferation) repeat 2, % inhibition [2]: 9% | AntiCD3/CD28 (CD69+ CD4 T cells) repeat 1, % inhibition [2]: 22% | AntiCD3/CD28 (CD69+ CD4 T cells) repeat 2, % inhibition [2]: 34% | MLR (CD4 T cell proliferation) repeat 1, % inhibition [2]: 7% | MLR (CD4 T cell proliferation) repeat 2, % inhibition [2]: 24%

B14: 4H4 (antibody, IgG1, V domains shown)
VH: QVQLQQSGAELARPGASVKLSCKASGYTFTSYGISWVKQRTGQGLEWIGEIYPRSGNTYYNEKFKGKATLTADKSSSTAYMELRSLTSEDSAVYFCARRRGAGDGFDYWGQGTTLTVSS
VL: DIQMTQTTSSLSASLGDRVTISCSASQGISNYLNWYQQKPDGTVKLLIYYTSSLHSGVPSRFSGSGSGTDYSLTISNLEPEDIATYYCQQYSKLPFTFGSGTKLEIK
T cell reporter (NFkB signaling), % inhibition [1]: 25% | AntiCD3/CD28 (CD4 T cell proliferation) repeat 1, % inhibition [2]: 14% | AntiCD3/CD28 (CD4 T cell proliferation) repeat 2, % inhibition [2]: 22% | AntiCD3/CD28 (CD69+ CD4 T cells) repeat 1, % inhibition [2]: 43% | AntiCD3/CD28 (CD69+ CD4 T cells) repeat 2, % inhibition [2]: 52% | MLR (CD4 T cell proliferation) repeat 1, % inhibition [2]: 10% | MLR (CD4 T cell proliferation) repeat 2, % inhibition [2]: 17%
